# According to paper PMC3575409, “Identification of a Novel Protein-Protein Interaction Motif Mediating Interaction of GPCR-Associated Sorting Proteins with G Protein-Coupled Receptors” (PLoS ONE, 2013):
# B1: GASP peptide (peptide)
# peptide: RVKQEPRFEEEVIIGSWFWAEKEA
# notes: 24 amino acids containing the first GASP motif of GASP-2; also called synthetic peptide of 24 amino acids containing the first GASP motif of GASP-2; source: synthetic peptide (Genecust, ≥85% purity)
# Columns and labels:
# [1] = target: T1, purified full-length β2 adrenergic receptor (ADRB2) (human, UniProt P07550 1-413); assay: SPR; competition: 1.1 µM ADRB2 or 0.30 µM CNR2 preincubated at least 1 h with a range of GASP peptide or control peptide, injected over captured GST-tagged central domain of GASP-1; 25°C; endpoint responses 20 s after injection end; conditions: both partners purified
# T1 construct: human β2 adrenergic receptor; further tags may be present; also called full-length ADRB2; source: P. pastoris, solubilized in DDM/CHS, purified (HisTrap)
# [2] = target: T2, purified full-length cannabinoid receptor type 2 (CNR2) (human, UniProt P34972 1-360); assay: as above; conditions: both partners purified
# T2 construct: human cannabinoid receptor type 2; further tags may be present; also called full-length CNR2; source: P. pastoris, solubilized in DDM/CHS, purified (HisTrap)
# T2 sequence (P34972 whole entry): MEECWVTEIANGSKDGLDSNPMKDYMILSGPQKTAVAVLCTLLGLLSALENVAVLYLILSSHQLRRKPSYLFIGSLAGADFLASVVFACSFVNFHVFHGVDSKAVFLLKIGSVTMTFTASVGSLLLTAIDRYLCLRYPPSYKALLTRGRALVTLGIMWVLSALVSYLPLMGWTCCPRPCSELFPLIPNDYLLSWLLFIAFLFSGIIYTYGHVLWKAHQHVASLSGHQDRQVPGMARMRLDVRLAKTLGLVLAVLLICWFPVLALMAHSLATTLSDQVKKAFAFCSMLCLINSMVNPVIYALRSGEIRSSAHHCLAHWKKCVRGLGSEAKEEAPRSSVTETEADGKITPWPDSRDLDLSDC
binder,measurement,setting,value
B1,IC50,[1],~100 µM
same,IC50,[2],~100 µM
